# ChEMBL document CHEMBL2073804, “Transport of the beta -O-glucuronide conjugate of the tobacco-specific carcinogen 4-(methylnitrosamino)-1-(3-pyridyl)-1-butanol (NNAL) by the multidrug resistance protein 1 (MRP1). Requirement for glutathione or a non-sulfur-containing analog” (J Biol Chem, 2001)
# B1: Multidrug resistance-associated protein 1 (Homo sapiens) (protein)
# chain: MALRGFCSADGSDPLWDWNVTWNTSNPDFTKCFQNTVLVWVPCFYLWACFPFYFLYLSRHDRGYIQMTPLNKTKTALGFLLWIVCWADLFYSFWERSRGIFLAPVFLVSPTLLGITMLLATFLIQLERRKGVQSSGIMLTFWLVALVCALAILRSKIMTALKEDAQVDLFRDITFYVYFSLLLIQLVLSCFSDRSPLFSETIHDPNPCPESSASFLSRITFWWITGLIVRGYRQPLEGSDLWSLNKEDTSEQVVPVLVKNWKKECAKTRKQPVKVVYSSKDPAQPKESSKVDANEEVEALIVKSPQKEWNPSLFKVLYKTFGPYFLMSFFFKAIHDLMMFSGPQILKLLIKFVNDTKAPDWQGYFYTVLLFVTACLQTLVLHQYFHICFVSGMRIKTAVIGAVYRKALVITNSARKSSTVGEIVNLMSVDAQRFMDLATYINMIWSAPLQVILALYLLWLNLGPSVLAGVAVMVLMVPVNAVMAMKTKTYQVAHMKSKDNRIKLMNEILNGIKVLKLYAWELAFKDKVLAIRQEELKVLKKSAYLSAVGTFTWVCTPFLVALCTFAVYVTIDENNILDAQTAFVSLALFNILRFPLNILPMVISSIVQASVSLKRLRIFLSHEELEPDSIERRPVKDGGGTNSITVRNATFTWARSDPPTLNGITFSIPEGALVAVVGQVGCGKSSLLSALLAEMDKVEGHVAIKGSVAYVPQQAWIQNDSLRENILFGCQLEEPYYRSVIQACALLPDLEILPSGDRTEIGEKGVNLSGGQKQRVSLARAVYSNADIYLFDDPLSAVDAHVGKHIFENVIGPKGMLKNKTRILVTHSMSYLPQVDVIIVMSGGKISEMGSYQELLARDGAFAEFLRTYASTEQEQDAEENGVTGVSGPGKEAKQMENGMLVTDSAGKQLQRQLSSSSSYSGDISRHHNSTAELQKAEAKKEETWKLMEADKAQTGQVKLSVYWDYMKAIGLFISFLSIFLFMCNHVSALASNYWLSLWTDDPIVNGTQEHTKVRLSVYGALGISQGIAVFGYSMAVSIGGILASRCLHVDLLHSILRSPMSFFERTPSGNLVNRFSKELDTVDSMIPEVIKMFMGSLFNVIGACIVILLATPIAAIIIPPLGLIYFFVQRFYVASSRQLKRLESVSRSPVYSHFNETLLGVSVIRAFEEQERFIHQSDLKVDENQKAYYPSIVANRWLAVRLECVGNCIVLFAALFAVISRHSLSAGLVGLSVSYSLQVTTYLNWLVRMSSEMETNIVAVERLKEYSETEKEAPWQIQETAPPSSWPQVGRVEFRNYCLRYREDLDFVLRHINVTINGGEKVGIVGRTGAGKSSLTLGLFRINESAEGEIIIDGINIAKIGLHDLRFKITIIPQDPVLFSGSLRMNLDPFSQYSDEEVWTSLELAHLKDFVSALPDKLDHECAEGGENLSVGQRQLVCLARALLRKTKILVLDEATAAVDLETDDLIQSTIRTQFEDCTVLTIAHRLNTIMDYTRVIVLDKGEIQEYGAPSDLLQQRGLFYSMAKDAGLV
# Substrate: CN(CCCC(C[C@@H]1O[C@H](C(=O)O)[C@@H](O)[C@H](O)[C@H]1O)c1cccnc1)N=O
# Test: TP_TRANSPORTER: uptake, in the presence of GSH in membrane vesicle from MRP1-expressing T5 HeLa cell
# Type: functional, cell membranes
protein,measurement,value
B1,Km,39 µM
